The values below come from the supplement of paper PMC10567573.

This series in a line: protein stability index of a GFP-peptide fusion (GPS, HEK-293T) (PSI 1-6); higher = more stable.
Where [1] appears, read: treatment: DMSO, c terminus: a fixed tail appended.
[2] abbreviates: treatment: MLN4924 1 uM, 8 h, c terminus: a fixed tail appended.
[3] abbreviates: treatment: DMSO, c terminus: native.
Setting [4] is: treatment: MLN4924 1 uM, 8 h, c terminus: native.

± gives the standard deviation.
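Also: 24-mer peptide tiles fused after GFP, lentivirally expressed, FACS-sorted into six equal bins by GFP/DsRed ratio, decoded by Illumina sequencing, PSI is the read-weighted mean bin number.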

For SSRYDDYSSSRDGYGGSRDSYSSS [RBMX], the protein stability index reads like this: under setting [1], 4.37 ± 0.25; under setting [2], 4.52 ± 0.19.

Take SSSSILRWLPEKRANPCLSSSNEH [ELOA2]: the protein stability index was determined as 3.4 ± 0.19 under setting [1] and 3.54 ± 0.25 under setting [2].

Regarding SSSSSSSSSSGPGHGEPDVLKDEL [TMEM40], the protein stability index is, setting by setting: under setting [1], 5.44 ± 0.15; under setting [2], 5.42 ± 0.21.

Take SSVSPAVSKASSRRSSFSMEEES [TFE3]: the protein stability index by setting is: under setting [3], 5.44 ± 0.14; under setting [4], 5.28 ± 0.17.

In the case of STEKVVQETVLVEERRVVHASGDA [EPB41L3], the protein stability index under setting [1] was 5.33 ± 0.23 and the protein stability index under setting [2] came to 4.93 ± 0.16.

On to STFYPPYHSPELTTPPGHGTLDNS [NEUROD6], for which the protein stability index is, setting by setting: under setting [1], 4.27 ± 0.091; under setting [2], 4.21 ± 0.22.

For STTDLRGTQFDYERGKGESTEDR [ZSWIM9], the protein stability index reads like this: under setting [3], 5.28 ± 0.34; under setting [4], 5.43 ± 0.11.

For SVFKKGRRRVPVRNLGKVVHYAKV [PLEKHN1], the protein stability index by setting is: under setting [1], 2.36 ± 0.17; under setting [2], 2.37 ± 0.84.

As for SVIEEDLEEFQLALKHYVESASSQ [NECAB1], the protein stability index was 3.78 ± 0.58 under setting [1] and 3.84 ± 0.077 under setting [2].

Regarding SVIKDHHTRSITSCCFDPDSQRVA [WDR88], the protein stability index amounted to 3.35 ± 0.2 under setting [1] and 3.41 ± 0.38 under setting [2].

With SVLLSWEIPENYNSAMPFKILYDD [PTPRD], the protein stability index is 1.88 ± 0.26 under setting [1] and 2.29 ± 0.22 under setting [2].

For the sequence SVMYRKWKESKGKDREYTDIIRKQ [CDC34], the protein stability index was 3.52 ± 0.18 under setting [1] and 3.76 ± 0.25 under setting [2].

For SWMCTRSGNMLGRHFFTSWASCLQ [WDFY1], the protein stability index came out at 1.86 ± 0.32 under setting [1] and 2.33 ± 0.22 under setting [2].

In the case of TCSADHLIILWKNGERESGLRSLR [WDR41], the protein stability index reads like this: under setting [1], 2.09 ± 0.25; under setting [2], 2.28 ± 0.17.

Turning to TCSICRRNFSRRSSLLRHQKLHL [ZNF75A], the protein stability index reads like this: under setting [3], 3.65 ± 0.23; under setting [4], 4.06 ± 0.43.

Take TDNSIKPQELLEWELVVLGKLKWN [CCND2]: the protein stability index is, setting by setting: under setting [1], 2.65 ± 0.25; under setting [2], 2.81 ± 0.33.

For TEELNKEVASNTEMIQTSKTEITD [KRT15], the protein stability index worked out at 5.49 ± 0.29 under setting [1] and 5.52 ± 0.19 under setting [2].

As for TEISFILGQEFDEVTADDRKVKST [FABP4], the protein stability index under setting [1] turned out to be 4.24 ± 0.43 and the protein stability index under setting [2] stood at 4.43 ± 0.17.

Regarding TERMDKVGDALEEVLSKALSQRTI [GADD45A], the protein stability index by setting is: under setting [1], 3.83 ± 0.26; under setting [2], 3.83 ± 0.13.

Regarding TESYIARPDGDCASSLNGGNIKGI [ZC2HC1A], the protein stability index stood at 4.09 ± 0.047 under setting [1] and 4.24 ± 0.21 under setting [2].

In the case of TEWACILRRKTPRHKQPTLLMVRA [C6orf223], the protein stability index runs as follows: under setting [1], 2.19 ± 0.57; under setting [2], 2.17 ± 0.097.

On to TFALYKNGSSEKREVRQFQFTAWP [PTPRD], for which the protein stability index runs as follows: under setting [1], 2.29 ± 0.22; under setting [2], 2.46 ± 0.18.

In the case of TFFEVSPLCNFNVIESFTELSRIV [RAB40C], the protein stability index was 2.46 ± 0.63 under setting [1] and 2.15 ± 0.43 under setting [2].

Regarding TFQSSVLRVGIPENAPIGTLLLRL [PCDHGC5], the protein stability index was 2.23 ± 0.3 under setting [1] and 2.16 ± 0.12 under setting [2].

TGEDVKVILKNSQGEEVAQRSTVF [LMNB1] gave a protein stability index under setting [1] of 4.7 ± 0.15 and a protein stability index under setting [2] of 4.64 ± 0.09.

THSREKSSQESGEEAGSQENHPQE [CHGB] yielded a protein stability index under setting [1] of 5.54 ± 0.39 and a protein stability index under setting [2] of 5.6 ± 0.18.

As for THVTLLITVTQSHLVIQNLFEGMI [CDS1], the protein stability index stood at 3.09 ± 0.21 under setting [1] and 3.22 ± 0.16 under setting [2].

As for TIPASLDLSPLLGFWQLPPPATQN [PLAGL1], the protein stability index stood at 2.74 ± 0.15 under setting [1] and 2.96 ± 0.32 under setting [2].

TKHIHITQATETTTTRHKRTANPS [CLINT1]: the protein stability index by setting is: under setting [1], 4.6 ± 0.19; under setting [2], 4.77 ± 0.13.

Regarding TKKKGVKRPARLHTKPSQAPAVEV [NOP53], the protein stability index was found to be 4.36 ± 0.2 under setting [1] and 4.411 ± 0.021 under setting [2].

TLDKRWRVRKEAMMGLAQIYKKYA [PDS5B]: the protein stability index by setting is: under setting [1], 2.23 ± 0.21; under setting [2], 2 ± 0.14.

With TLEQHLNTLEGKKPGNNEGSGAPS [SNAP91], the protein stability index runs as follows: under setting [1], 4.81 ± 0.18; under setting [2], 5.14 ± 0.08.

As for TLHPDASANFHSLDDIYYFGGQNA [FUT8], the protein stability index runs as follows: under setting [1], 3.21 ± 0.12; under setting [2], 3.27 ± 0.16.

TLIREKSFGACLREETPRMPSWAS [ELOA2]: the protein stability index runs as follows: under setting [1], 2.14 ± 0.13; under setting [2], 2.67 ± 0.71.

As to TLLLQGHHDKVQSLCYLQLTRQLV [WDFY1], the protein stability index turned out to be 2.8 ± 0.43 under setting [1] and 2.76 ± 0.38 under setting [2].

TMARALGRFKLSIPHTHLLATLDP [WDR88]: the protein stability index under setting [1] worked out at 2.19 ± 0.27 and the protein stability index under setting [2] was 2.21 ± 0.18.

As for TNDVETARCTAGTLHNLSHHREGL [CTNNB1], the protein stability index came out at 3.89 ± 0.19 under setting [1] and 4.07 ± 0.18 under setting [2].

For TPAGLPPSRAKPPTEGAGSPAKAS [FBF1], the protein stability index under setting [1] came out at 5.38 ± 0.32 and the protein stability index under setting [2] is 5.4 ± 0.1.

For TPDIKSHYAFRIFDFDDDGTLNRE [CIB1], the protein stability index is, setting by setting: under setting [1], 3.55 ± 0.15; under setting [2], 3.44 ± 0.21.

Regarding TPEELTILGETQEEEDEILPRKDY [CLCN6], the protein stability index by setting is: under setting [1], 5.51 ± 0.13; under setting [2], 5.54 ± 0.21.

Sequence TPEKKAEEERDEEEDKRRKGEEVT [EPB41L3] had a protein stability index under setting [1] of 5.74 ± 0.29 and a protein stability index under setting [2] of 5.75 ± 0.27.

Consider TQQELRKIREKEEWIKLDYHRRHN [IQUB], for which the protein stability index came out at 3.88 ± 0.29 under setting [1] and 3.82 ± 0.52 under setting [2].

Sequence TQRLWDFTQSGPIVSRATGRCLEV [GALNT9] came in with a protein stability index under setting [1] of 2.81 ± 0.43 and a protein stability index under setting [2] of 3.02 ± 0.22.

Regarding TQYFAELLMTSGVVLCEGVKWLSF [CNOT7], the protein stability index reads like this: under setting [1], 3.25 ± 0.2; under setting [2], 3.56 ± 0.19.

Turning to TQYFVQENYLEYRQVPGSDPACYE [MAGEA6], the protein stability index runs as follows: under setting [1], 3.34 ± 0.29; under setting [2], 3.59 ± 0.38.

Turning to TRGKRESESRGSSGRVKRERDRER [USP39], the protein stability index amounted to 5.04 ± 0.26 under setting [1] and 5.3 ± 0.18 under setting [2].

Consider TRHYRPPEVILELGWAQPCDVWSI [CLK3], for which the protein stability index by setting is: under setting [1], 2.69 ± 0.65; under setting [2], 2.47 ± 0.52.

The sequence TRPTQHELRLYKQQVKKLEKALKK [CEP70] had a protein stability index under setting [1] of 3.23 ± 0.25 and a protein stability index under setting [2] of 3.07 ± 0.29.

Turning to TRSHLWEAAQVVPDGLGLDEAREE [TRIB3], the protein stability index runs as follows: under setting [1], 5.13 ± 0.24; under setting [2], 5.13 ± 0.28.

On to TRTGPSAWETKKILAVSFAPLIQP [PCMTD2], for which the protein stability index by setting is: under setting [1], 2.14 ± 0.29; under setting [2], 2.31 ± 0.31.

Consider TSAKVNWMPPPSRADSFKVSYQLA [TNXB], for which the protein stability index turned out to be 2.5 ± 0.32 under setting [1] and 2.69 ± 0.26 under setting [2].

For the sequence TSIGDGPLSSDIQVITQTGVPGQP [PTPRD], the protein stability index runs as follows: under setting [1], 4.6 ± 0.22; under setting [2], 4.76 ± 0.19.

Take TSPTRQHHVEREKDHSSSRPSSPR [BTBD10]: the protein stability index runs as follows: under setting [1], 5.38 ± 0.12; under setting [2], 5.45 ± 0.092.

Take TTKFTGSHKERFDPSGKGKGKAGR [TPPP]: the protein stability index by setting is: under setting [1], 4.83 ± 0.2; under setting [2], 4.93 ± 0.32.

For the sequence TTPLSPTRLSRLQEKEELRELNDR [LMNB1], the protein stability index under setting [1] was found to be 5.18 ± 0.39 and the protein stability index under setting [2] was determined as 5.1 ± 0.18.

Regarding TVASEAKIQLSDSEAKSHSSADDA [FAN1], the protein stability index came to 5.46 ± 0.28 under setting [1] and 5.38 ± 0.27 under setting [2].

With TVFDANDNAPVFTLPEYRVSVPEN [PCDHGA10], the protein stability index was determined as 3.53 ± 0.11 under setting [1] and 3.86 ± 0.16 under setting [2].

Regarding TVKHIDAALSEENTGKTYFFVANK [MMP1], the protein stability index came to 3.28 ± 0.32 under setting [1] and 3.38 ± 0.18 under setting [2].

On to TVLAVLEDSSRDIREALHELLCCT [INTS4], for which the protein stability index turned out to be 2.43 ± 0.54 under setting [1] and 2.29 ± 0.26 under setting [2].

For VACSETAPDLVLNAEMVQQTTYLE [LOXL2], the protein stability index under setting [1] came to 4.41 ± 0.53 and the protein stability index under setting [2] came to 4.5 ± 0.25.

VAFVDRADIKQYIGPPSAAAIFKI [TRIP13]: the protein stability index runs as follows: under setting [1], 2.82 ± 0.66; under setting [2], 2.36 ± 0.47.

Regarding VASRNLFPKDTLMNLHVYISEHEH [CLPTM1], the protein stability index runs as follows: under setting [1], 2.35 ± 0.34; under setting [2], 2.37 ± 0.51.

Consider VATGSQQSLAQPLPGNTTEATPRS, for which the protein stability index by setting is: under setting [1], 5.42 ± 0.44; under setting [2], 5.28 ± 0.43.

Consider VCCNPYHFSRLCGPESPPPPYSRL [SMAD6], for which the protein stability index is, setting by setting: under setting [1], 2.15 ± 0.36; under setting [2], 2.15 ± 0.18.

Turning to VCDSCYDSIKDEDRTSLATFHEGK [WDFY1], the protein stability index is 4.62 ± 0.28 under setting [1] and 4.83 ± 0.26 under setting [2].

In the case of VDQKLELNIVPRTKVVYLASETFN [PI4K2A], the protein stability index reads like this: under setting [1], 2.38 ± 0.23; under setting [2], 2.51 ± 0.25.

As for VEEPSSKDVMEKREDSKEAEKSGE [CHGA], the protein stability index is 5.5 ± 0.36 under setting [1] and 5.58 ± 0.32 under setting [2].

Consider VEKSSPATSLFVELDEEEVKAATT [BCL2L13], for which the protein stability index is, setting by setting: under setting [1], 5.53 ± 0.22; under setting [2], 5.46 ± 0.2.

In the case of VELLLSHADCDRRSRIEALELLGA [FEM1B], the protein stability index is 2.7 ± 0.19 under setting [1] and 2.78 ± 0.21 under setting [2].

Turning to VENNRRDVEAWFNTQTEELNQQVV [KRT36], the protein stability index reads like this: under setting [1], 4.67 ± 0.27; under setting [2], 4.65 ± 0.14.

Take VFCPLDPPPPYEAVVSQMDQEQGS [FAM189A2]: the protein stability index runs as follows: under setting [1], 4.65 ± 0.13; under setting [2], 4.76 ± 0.2.

In turn, VGKVEELIESEAPPKASEQETAKE [C18orf25] showed a protein stability index under setting [1] of 5.53 ± 0.28 and a protein stability index under setting [2] of 5.6 ± 0.27.
